Tests used:
[1] = test system: Bacillus subtilis ATCC 6633; assay: Agar diffusion test: inhibition by hydrogen peroxide on TSA-LT agar plates with additives; assay type: cell-based; conditions: 10 μl on paper disc; for Inhibition on gamma-irradiated agar plates: gamma-irradiated 20.5 kGy; for Inhibition on agar plates: not irradiated
[2] = test system: Bacillus subtilis ATCC 6633; assay: Growth promotion test: colonies on TSA-LT agar plates treated with hydrogen peroxide; assay type: cell-based; conditions: for Colonies on agar: no catalase, hydrogen peroxide as in Example 3; for Colonies on gamma-irradiated agar / Colonies on agar plates: 300 μl 1% hydrogen peroxide (100 ppm in medium); for Colonies on gamma-irradiated agar: gamma-irradiated 20.5 kGy; for Colonies on agar plates: not irradiated
[3] = 8000 international units of catalase per plate; cited from earlier work
[4] = sodium pyruvate 2.00 g/l together with sodium thiosulfate 0.05 g/l, 2% hydrogen peroxide
[5] = sodium pyruvate 2.00 g/l together with sodium thiosulfate 0.05 g/l, 5% hydrogen peroxide
[6] = sodium pyruvate 2.00 g/l together with sodium thiosulfate 0.05 g/l, 8% hydrogen peroxide
[7] = sodium pyruvate 2.00 g/l together with sodium thiosulfate 0.05 g/l, 10% hydrogen peroxide
[8] = sodium pyruvate 2.00 g/l together with sodium thiosulfate 0.05 g/l
[9] = 80 U/plate, 2% hydrogen peroxide
[10] = 80 U/plate, 5% hydrogen peroxide
[11] = 80 U/plate, 8% hydrogen peroxide
[12] = 80 U/plate, 10% hydrogen peroxide
[13] = 150 U/plate, 2% hydrogen peroxide
[14] = 150 U/plate, 5% hydrogen peroxide
[15] = 150 U/plate, 8% hydrogen peroxide
[16] = 150 U/plate, 10% hydrogen peroxide
[17] = 300 U/plate, 2% hydrogen peroxide
[18] = 300 U/plate, 5% hydrogen peroxide
[19] = 300 U/plate, 8% hydrogen peroxide
[20] = 300 U/plate, 10% hydrogen peroxide

Molecule: CC(=O)C(=O)[O-].[Na+] [Sodium pyruvate, reference compound]
- Inhibition on gamma-irradiated agar plates [1, 4]: 0 mm
- Inhibition on agar plates [1, 4]: 0 mm
- Inhibition on gamma-irradiated agar plates [1, 5]: 1 mm
- Inhibition on agar plates [1, 5]: 1 mm
- Inhibition on gamma-irradiated agar plates [1, 6]: 2 mm
- Inhibition on agar plates [1, 6]: 2 mm
- Inhibition on gamma-irradiated agar plates [1, 7]: 3 mm
- Inhibition on agar plates [1, 7]: 2.5 mm
- growth in agar plates with hydrogen peroxide ([2]; 0.2 g/l sodium pyruvate and 0.005 g/l sodium thiosulfate without catalase): did not support growth
- Colonies on agar ([2]; sodium pyruvate 0.20 g/l with sodium thiosulfate 0.005 g/l): 0 CFU
- Colonies on gamma-irradiated agar [2, 8]: 229 CFU
- Colonies on agar plates [2, 8]: 161 CFU
- Colonies on agar ([2]; sodium pyruvate 2.00 g/l with sodium thiosulfate 0.05 g/l): 125 CFU

Molecule: catalase
- recovery [3]: 60%

B1: Catalase from bovine liver: Catalase prepared from commercial product C9322 (Sigma), dissolved in 0.1 M potassium phosphate pH 7.0; comparator (protein, UniProt P00432 2-527, looked up)
Catalase: ADNRDPASDQMKHWKEQRAAQKPDVLTTGGGNPVGDKLNSLTVGPRGPLLVQDVVFTDEMAHFDRERIPERVVHAKGAGAFGYFEVTHDITRYSKAKVFEHIGKRTPIAVRFSTVAGESGSADTVRDPRGFAVKFYTEDGNWDLVGNNTPIFFIRDALLFPSFIHSQKRNPQTHLKDPDMVWDFWSLRPESLHQVSFLFSDRGIPDGHRHMNGYGSHTFKLVNANGEAVYCKFHYKTDQGIKNLSVEDAARLAHEDPDYGLRDLFNAIATGNYPSWTLYIQVMTFSEAEIFPFNPFDLTKVWPHGDYPLIPVGKLVLNRNPVNYFAEVEQLAFDPSNMPPGIEPSPDKMLQGRLFAYPDTHRHRLGPNYLQIPVNCPYRARVANYQRDGPMCMMDNQGGAPNYYPNSFSAPEHQPSALEHRTHFSGDVQRFNSANDDNVTQVRTFYLKVLNEEQRKRLCENIAGHLKDAQLFIQKKAVKNFSDVHPEYGSRIQALLDKYNEEKPKNAVHTYVQHGSHLSAREKANL
- Inhibition on gamma-irradiated agar plates [1, 9]: 3.5 mm
- Inhibition on agar plates [1, 9]: 1 mm
- Inhibition on gamma-irradiated agar plates [1, 10]: 7 mm
- Inhibition on agar plates [1, 10]: 5 mm
- Inhibition on gamma-irradiated agar plates [1, 11]: 8 mm
- Inhibition on agar plates [1, 11]: 6 mm
- Inhibition on gamma-irradiated agar plates [1, 12]: 8.5 mm
- Inhibition on agar plates [1, 12]: 7 mm
- Inhibition on gamma-irradiated agar plates [1, 13]: 2 mm
- Inhibition on agar plates [1, 13]: 0.5 mm
- Inhibition on gamma-irradiated agar plates [1, 14]: 6 mm
- Inhibition on agar plates [1, 14]: 4 mm
- Inhibition on gamma-irradiated agar plates [1, 15]: 7.5 mm
- Inhibition on agar plates [1, 15]: 5 mm
- Inhibition on gamma-irradiated agar plates [1, 16]: 8 mm
- Inhibition on agar plates [1, 16]: 6 mm
- Inhibition on gamma-irradiated agar plates [1, 17]: 1.5 mm
- Inhibition on agar plates [1, 17]: 0 mm
- Inhibition on gamma-irradiated agar plates [1, 18]: 5.5 mm
- Inhibition on agar plates [1, 18]: 2 mm
- Inhibition on gamma-irradiated agar plates [1, 19]: 6.5 mm
- Inhibition on agar plates [1, 19]: 4 mm
- Inhibition on gamma-irradiated agar plates [1, 20]: 7.5 mm
- Inhibition on agar plates [1, 20]: 4.5 mm
- Colonies on gamma-irradiated agar ([2]; 80 U/plate): 0 CFU
- Colonies on agar plates ([2]; 80 U/plate): 0 CFU
- Colonies on gamma-irradiated agar ([2]; 150 U/plate): 0 CFU
- Colonies on agar plates ([2]; 150 U/plate): 0 CFU
- Colonies on gamma-irradiated agar ([2]; 300 U/plate): 0 CFU
- Colonies on agar plates ([2]; 300 U/plate): 0 CFU
- recovery of the applied colony forming units ([2]; highest tested concentration of 300 U/plate, not irradiated medium): 0%
